# Measured values taken from patent US11155586B2, “Cystine knot scaffold platform” (Genentech, Inc., priority 2015, dated 2021).
# No end group written: not given here.
# Target: Wnt1 signaling (Homo sapiens)
# Experiment: Wnt luciferase reporter assay in HEK293 cells, Wnt1
# Assay type: cell-based
# Experimental: HEK293 cells stably transfected with a firefly luciferase Wnt reporter (Gong et al. (2010) PLoS ONE 59: e12682). and pRL-SV40 Renilla luciferase (Promega) were grown to 90% confluence in DMEM:F12 (50:50) supplemented with 10% FBS, 2 mM GLUTAMAX™ and 40 μg/ml hygromycin. Cells were incubated in a 5% CO2 humidified incubator at 37° C. for 24 h. Following the incubation, the cells were trypsinized (0.05% Gibco 15400-54 in PBS) then diluted to 4×10^5 cells/ml in DMEM:F12 (50:50) supplemented with 10% FBS, 2 mM GLUTAMAX™. 20,000 cells were loaded into individual wells of white microtest 96-well optilux plates (catalog no. 353947) and incubated for ˜24 h. Each well was transfected using FUGENE® HD with Wnt1-pCDNA3.2 (5 ng/well) or Wnt3a-pCDNA3.2 (25 ng/well) then grown for 24 h. […]
# Luciferase response in all assays was then measured with Promega's DUAL-GLO® kit according to the manufacturer's instructions, except using half the volume of each reagent. Firefly luminescence and Renilla luminescence were measured on a Perkin Elmer ENVISION™ Multilabel Reader. The ratios of firefly luminescence: Renilla luminescence were calculated and normalized to the ratio in control cells expressing or treated with the indicated Wnt protein. […] Statistical significance was determined using the Holm-Sidak method, with alpha=5.000%.
# Wnt1 signaling (Homo sapiens), sequence (O75581 20-1613): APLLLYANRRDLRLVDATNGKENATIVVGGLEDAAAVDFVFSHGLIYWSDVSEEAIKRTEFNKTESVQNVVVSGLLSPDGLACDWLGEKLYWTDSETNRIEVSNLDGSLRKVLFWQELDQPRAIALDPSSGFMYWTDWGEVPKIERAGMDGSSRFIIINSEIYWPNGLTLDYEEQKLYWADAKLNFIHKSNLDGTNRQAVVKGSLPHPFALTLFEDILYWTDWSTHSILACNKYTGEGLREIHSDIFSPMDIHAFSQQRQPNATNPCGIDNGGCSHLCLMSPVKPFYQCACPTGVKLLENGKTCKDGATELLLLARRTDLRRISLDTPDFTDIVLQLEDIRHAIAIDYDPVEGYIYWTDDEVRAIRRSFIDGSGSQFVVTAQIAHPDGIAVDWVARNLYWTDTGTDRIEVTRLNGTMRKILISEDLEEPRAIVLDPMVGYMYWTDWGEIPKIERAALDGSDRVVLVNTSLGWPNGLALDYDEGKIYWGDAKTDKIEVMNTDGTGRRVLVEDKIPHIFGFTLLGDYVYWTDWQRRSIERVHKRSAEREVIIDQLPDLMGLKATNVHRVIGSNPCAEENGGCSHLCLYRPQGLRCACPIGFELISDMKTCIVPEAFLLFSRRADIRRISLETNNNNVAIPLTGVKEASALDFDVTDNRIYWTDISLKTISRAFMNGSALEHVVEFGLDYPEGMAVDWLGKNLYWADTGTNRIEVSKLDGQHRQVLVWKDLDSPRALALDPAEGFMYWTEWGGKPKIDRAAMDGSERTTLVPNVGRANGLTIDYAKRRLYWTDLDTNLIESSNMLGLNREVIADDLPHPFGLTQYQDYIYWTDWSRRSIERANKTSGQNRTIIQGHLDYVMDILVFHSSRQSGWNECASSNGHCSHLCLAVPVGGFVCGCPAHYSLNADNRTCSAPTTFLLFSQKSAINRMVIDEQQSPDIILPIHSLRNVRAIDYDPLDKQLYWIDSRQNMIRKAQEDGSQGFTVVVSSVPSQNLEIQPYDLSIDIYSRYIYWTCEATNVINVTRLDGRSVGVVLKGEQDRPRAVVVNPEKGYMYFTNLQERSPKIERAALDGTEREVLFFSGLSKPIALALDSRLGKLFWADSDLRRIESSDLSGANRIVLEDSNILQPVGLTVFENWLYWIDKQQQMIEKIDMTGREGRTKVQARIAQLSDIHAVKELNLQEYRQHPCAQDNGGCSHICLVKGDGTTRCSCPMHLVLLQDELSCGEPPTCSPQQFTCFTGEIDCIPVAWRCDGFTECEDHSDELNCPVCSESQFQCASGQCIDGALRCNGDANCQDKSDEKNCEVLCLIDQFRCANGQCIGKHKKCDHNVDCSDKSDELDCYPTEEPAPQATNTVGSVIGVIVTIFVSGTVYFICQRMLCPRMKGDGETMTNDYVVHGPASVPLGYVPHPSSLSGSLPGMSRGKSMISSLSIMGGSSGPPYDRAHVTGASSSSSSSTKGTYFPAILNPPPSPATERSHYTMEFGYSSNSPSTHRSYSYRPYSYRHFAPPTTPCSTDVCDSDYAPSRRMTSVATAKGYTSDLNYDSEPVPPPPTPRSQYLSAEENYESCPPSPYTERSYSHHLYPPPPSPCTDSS
substance,measurement,value
"R19: LRP6 E1E2-binding EETI-II variant generated in soluble folded form (GCSNRVKVRACKQDSDCLAGCVCGPNGFCG; ends and bridges not checked; also: three disulfides, pairing not given here)",selectivity for Wnt1 over Wnt3a signaling,11 fold
